From PMC4753479, “A CAPS-based binding assay provides semi-quantitative validation of protein-DNA interactions” come the findings set out here.

In data set [1] the target is T1, rOsVAL2-B3 (rice, UniProt Q6Z3U3 144-517).
T1 sequence: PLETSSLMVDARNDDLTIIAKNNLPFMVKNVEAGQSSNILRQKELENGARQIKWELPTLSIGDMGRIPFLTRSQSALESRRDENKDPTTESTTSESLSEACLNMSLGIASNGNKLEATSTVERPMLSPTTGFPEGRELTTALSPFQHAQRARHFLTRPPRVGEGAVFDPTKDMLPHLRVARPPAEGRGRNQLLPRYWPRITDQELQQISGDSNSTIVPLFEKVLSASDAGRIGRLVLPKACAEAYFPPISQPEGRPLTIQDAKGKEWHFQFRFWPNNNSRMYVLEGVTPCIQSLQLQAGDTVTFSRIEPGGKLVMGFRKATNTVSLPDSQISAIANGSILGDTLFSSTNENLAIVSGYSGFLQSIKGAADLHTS
Kind of data set: restriction protection (CBA). As to conditions: NsiI, same inhibitory effect as 5 ug rOsGD1-B3, 150 ng DNA in 15 ul, CBA: restriction enzyme buffer, 1-7 ug protein, 30 min at 37 C then 1 h digestion at 37 C, pull-down: 1 ug biotinylated DNA, 12 h ….

Data set [2] deals with T2, rOsGD1-B3 (rice, UniProt Q0D5G4 342-640).
T2 sequence: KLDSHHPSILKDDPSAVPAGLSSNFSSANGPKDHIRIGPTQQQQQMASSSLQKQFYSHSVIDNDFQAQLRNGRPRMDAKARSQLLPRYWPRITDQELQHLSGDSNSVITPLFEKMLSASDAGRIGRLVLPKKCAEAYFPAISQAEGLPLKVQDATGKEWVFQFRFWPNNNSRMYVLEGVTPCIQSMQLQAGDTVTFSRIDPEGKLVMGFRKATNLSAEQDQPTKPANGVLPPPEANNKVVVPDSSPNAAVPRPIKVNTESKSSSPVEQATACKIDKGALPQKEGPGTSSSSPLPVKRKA
The data set is described as follows: restriction protection (CBA). As to conditions: 150 ng DNA in 15 ul, CBA: restriction enzyme buffer, 1-7 ug protein, 30 min at 37 C then 1 h digestion at 37 C, pull-down: 1 ug biotinylated DNA, 12 h ….

Data set [3] concerns the target T1, rOsVAL2-B3. The data set is described as follows: pull-down; stronger than rOsGD1-B3; CBA: restriction enzyme buffer, 150 ng DNA, 1-7 ug protein, 15 ul, 30 min at 37 C then 1 h digestion at 37 C; pull-down: 1 ug biotinylated DNA, 12 h, streptavidin-agarose, wash TBS (20 mM Tris, 150 mM NaCl), competitors 5x/10x/20x. As to conditions: protein: recombinant; tags: 6xHis (pGoldI); label: 5' biotin, both strands; blunt.

For data set [4], the target named is T2, rOsGD1-B3. The data set is described as follows: pull-down; weaker than rOsVAL2-B3; CBA: restriction enzyme buffer, 150 ng DNA, 1-7 ug protein, 15 ul, 30 min at 37 C then 1 h digestion at 37 C; pull-down: 1 ug biotinylated DNA, 12 h, streptavidin-agarose, wash TBS (20 mM Tris, 150 mM NaCl), competitors 5x/10x/20x. As to conditions: protein: recombinant; tags: 6xHis (pGoldI); label: 5' biotin, both strands; blunt.

In turn, WT RY-DNA 420 bp displayed a binding signal with rOsVAL2-B3 [1] of 3 µg protein. Moreover, the protein amount for inhibition of NsiI digestion in the data set with rOsGD1-B3 [2] came out at 5 µg protein.

B1: WT RY pull-down probe (dsDNA)
DNA 1: TAATTGCATGCATATATGCACGC
DNA 2: GCGTGCATATATGCATGCAATTA
In the case of B1, the binding result in the data set with rOsVAL2-B3 [3] and with rOsGD1-B3 [4] was “binds” in each case.
